In the experiment the target is RELMβ bait: RELMβ fused to rat CD4d3+4, BirA recognition site and 6X-histidine tag (mouse) (UniProt Q99P86). Description: SPR. A general note: SPR reads the build-up and loss of mass on a sensor chip optically.
Sequence of UniProt Q99P86 (Q99P86 24-105): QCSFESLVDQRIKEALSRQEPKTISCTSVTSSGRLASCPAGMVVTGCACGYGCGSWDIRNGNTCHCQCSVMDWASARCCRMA

In the case of “HpBoRB, C-terminal 6X-His tagged, from the pSecTAG2A expression vector (natural protein)”, the Kd was less than 0.1 nM.

One may read the Kd as the concentration at which binding is half-saturated. Higher therefore signals lower affinity.

The values above are taken from doi:10.1101/2025.05.27.656348.
